Measured values reported in patent publication US20200399330A1, “ANTI-LEUKEMIC, ANTI-HIV, AND SIALIDASE ACTIVITIES OF ROYAL-JELLY PROTEINS” (priority 2018, published 2020).
“Also recorded” adds a separate entry of the source.

B1: MRJP2: bound protein purified from PF50 by CM-Sephadex ion-exchange chromatography (protein, UniProt O77061 18-452, looked up)
Major royal jelly protein 2: AIVRENSPRNLEKSLNVIHEWKYFDYDFGSEERRQAAIQSGEYDHTKNYPFDVDQWRDKTFVTILRYDGVPSTLNVISGKTGKGGRLLKPYPDWSFAEFKDCSKIVSAFKIAIDKFDRLWVLDSGLVNRTVPVCAPKLHVFDLKTSNHLKQIEIPHDIAVNATTGKGGLVSLAVQAIDLANTLVYMADHKGDALIVYQNADDSFHRLTSNTFDYDPRYAKMTIDGESFTLKNGICGMALSPVTNNLYYSPLASHGLYYVNTAPFMKSQFGENNVQYQGSEDILNTQSLAKAVSKNGVLFVGLVGNSAVGCWNEHQSLQRQNLEMVAQNDRTLQMIAGMKIKEELPHFVGSNKPVKDEYMLVLSNRMQKIVNDDFNFDDVNFRILGANVKELIRNTHCVNNNQNDNIQNTNNQNDNNQKNNKKNANNQKNNNQNDN

What was measured:
[1] = test system: human T lymphocyte (Jurkat) leukemia cells; experiment: Anti-leukemic activity, MTT assay and phase-contrast morphology, Jurkat; type: cell-based; details: 72 h
Description: (§1) Anti-leukemic activity of RJ and its fractions, Both leukemia cells (NFS-60 and Jurkat) were seeded in RPMI containing 10% FBS as 3000 cells/well in 96 well cell culture plate. Then serial concentrations from the safe dose of each of the tested RJ and its fractions was added and incubated for 72 h in a 5% CO2 incubator at 37° C. The cytotoxic effect of RJ and its fractions in comparison with DOX against both leukemia cell lines were investigated using the MTT assay as described above. Then the concentration that inhibits leukemia cell growth by 50% (IG50 value) was determined for the RJ and each of its fractions and used to select the effective fraction (the lowest IG50 value). The morphological changes of untreated and treated leukemia cells were examined using the phase-contrast microscope.

[2] = test system: NFS-60 cells; experiment: Fluorescence microscope investigation of apoptotic cells (EB/AO double staining), NFS-60; type: cell-based, murine; details: NFS-60, 72 h
Description: (§2) Then leukemia cell apoptosis was investigated by ethidium bromide (EB)/acridine orange (AO) double staining (100 μg/mL for each) and then visualized under the fluorescent phase contrast microscope (Olympus, Japan).

[3] = test system: murine myeloid (NFS-60) leukemia cells; experiment: Anti-leukemic activity, MTT assay and phase-contrast morphology, NFS-60; type: cell-based; details: NFS-60, 72 h
Description: as §1

[4] = test system: Jurkat cells; experiment: Fluorescence microscope investigation of apoptotic cells (EB/AO double staining), Jurkat; type: cell-based, human; details: 72 h
Description: as §2

[5] = test system: PBMCs; experiment: Sialidase activity (release of cellular SA), PBMCs; type: cell-based, human; details: 2 h and 72 h incubation
Description: (§3) The sialidase catalytic activity of the RJ isolated PFs was evaluated by incubating different concentrations (500, 250, 125, 62.5, 31.25) of each of the RJ-PFs (CPF, PF25, PF30, PF40, PF50, PF60, MRJP2 and MRJP2 isoform X1) with PBMCs or HepG2 cells at 37° C. for 2 h and 72 h. Two controls were included, each PF alone without cells and each cell alone without PF. At the end of the incubation period, the released SA concentration was quantified followed the previously published method.
(§4) Preparation of SA-attached cells, PBMCs were obtained by Ficoll-Hypaque density gradient centrifugation method as described previously. […] Finally, the supernatant was removed and the cells were suspended in 5 ml of RPMI-1640 medium containing 10% FBS and counted using trypan blue stain. […]
(§5) The SA assay, SA concentration was measured by the alkali-Ehrlich method using 0.2 M borate buffer at pH 8.5. After the incubation period (2 h or 72 h), cell culture was centrifuged at 2000 rpm for 15 min and the SA content was quantified in the supernatant. […] The developed violet color was read at 560 nm. The SA concentration (nmol/mL) was calculated from the standard SA calibration curve and used to calculate the sialidase activity of the RJPF as nmol/ml/min (IU). The specific activity (IU/mg protein) was calculated after determination of the protein content (mg/mL) in the supernatant using the Bradford method.

[6] = test system: NFS-60 cells; experiment: Cell cycle distribution by flow cytometry, NFS-60; type: cell-based, murine; details: NFS-60, at IG50, 72 h
Description: (§6) Briefly, the untreated and treated leukemia cells were incubated with 5 μg/mL RNase A (Sigma, USA) then mixed with 10 μl of 1 mg/mL PI (Sigma, USA) for flow cytometry analysis at 488 nm using Cell Quist and Mod Fit softwares.

[7] = test system: Jurkat cells; experiment: Flow cytometric analysis of apoptosis (annexin V/PI), Jurkat; type: cell-based, human; details: at IG50, 72 h
Description: (§7) Flow cytometric analysis of apoptosis, RJ, its effective fractions (CPF, PF50, MRJP2, and MRJP2 X1), and DOX at their IG50 was incubated for 72 h with each of the leukemia cell lines. After trypsinization, the untreated and treated cells were incubated with annexin V/propidium iodide (PI) for 15 min. Then cells were fixed and incubated with streptavidin-fluorescein (5 μg/mL) for 15 min. The apoptosis-dependent anti-leukemic effect was determined by quantification of annexin-stained apoptotic cells using the Fluorescein isothiocyanate (FITC) signal detector (FL1) in the flow cytometer (Partec, Germany).

[8] = test system: NFS-60 cells; experiment: Flow cytometric analysis of apoptosis (annexin V/PI), NFS-60; type: cell-based, murine; details: NFS-60, at IG50, 72 h
Description: as §7

[9] = test system: HepG2 cells; experiment: Sialidase activity (release of cellular SA), HepG2; type: cell-based; details: 2 h and 72 h incubation
Description: as §3, §4, §5

[10] = test system: Jurkat cells; experiment: Cell cycle distribution by flow cytometry, Jurkat; type: cell-based, human; details: at IG50, 72 h
Description: as §6

| Molecule | IG50 (concentration that inhibits leukemia cell growth by 50%) ([1]; MTT) | apoptotic cell populations by EB/AO double staining [2] | IG50 (concentration that inhibits leukemia cell growth by 50%) ([3]; MTT) | apoptotic cell populations by EB/AO double staining [4] | sialidase activity (released SA) [5] | morphological changes under the phase contrast microscope [1] | cell cycle distribution (G0, G1, S, G2/M) [6] | morphological changes under the phase contrast microscope [3] | % apoptotic cells (annexin V/PI) [7] | % apoptotic cells (annexin V/PI) [8] | sialidase activity (released SA) [9] | cell cycle distribution (G0, G1, S, G2/M) [10] |
| --- | --- | --- | --- | --- | --- | --- | --- | --- | --- | --- | --- | --- |
| COc1cccc2c1C(=O)c1c(O)c3c(c(O)c1C2=O)C[C@@](O)(C(=O)CO)C[C@@H]3O[C@H]1C[C@H](N)[C@H](O)[C@H](C)O1 [DOX, Doxorubicin, reference compound] | significantly more potent than the tested fractions | increased the number of the late apoptotic cells | significantly more potent than the tested fractions | increased the number of the late apoptotic cells | – | – | – | – | – | – | – | – |
| B1 | – | increased the number of the late apoptotic cells | – | increased the number of the late apoptotic cells | proven their sialidase activity | hallmarks of the apoptosis, which observed obviously | almost completely blocking the cell cycle G0 phase; also recorded: the most effective fraction with the same or higher potency than DOX | hallmarks of the apoptosis, which observed obviously | inducing apoptosis; also recorded: highest percentage of the apoptotic cell populations | inducing apoptosis; also recorded: highest percentage of the apoptotic cell populations | proven their sialidase activity | almost completely blocking the cell cycle G0 phase; also recorded: the most effective fraction with the same or higher potency than DOX |
